Kd and fold loss of affinity (KD) against the ChErb1-ChYtm1 interaction data for three molecules are collected here from publication PMC4678814 (Nucleic Acids Research, 2015).

What is called Kd is a measure of binding affinity in units of concentration. A higher Kd goes with lower affinity.

Assay [1] concerns the target GST-tagged ChYtm1 (Chaetomium thermophilum) (UniProt G0SFB5). Briefly: BLI.
The target of assay [2] is T1, 6xHis-tagged ChYtm1 (Ytm1 from Chaetomium thermophilum) (Chaetomium thermophilum, UniProt G0SFB5 1-495).
T1 sequence (looked up): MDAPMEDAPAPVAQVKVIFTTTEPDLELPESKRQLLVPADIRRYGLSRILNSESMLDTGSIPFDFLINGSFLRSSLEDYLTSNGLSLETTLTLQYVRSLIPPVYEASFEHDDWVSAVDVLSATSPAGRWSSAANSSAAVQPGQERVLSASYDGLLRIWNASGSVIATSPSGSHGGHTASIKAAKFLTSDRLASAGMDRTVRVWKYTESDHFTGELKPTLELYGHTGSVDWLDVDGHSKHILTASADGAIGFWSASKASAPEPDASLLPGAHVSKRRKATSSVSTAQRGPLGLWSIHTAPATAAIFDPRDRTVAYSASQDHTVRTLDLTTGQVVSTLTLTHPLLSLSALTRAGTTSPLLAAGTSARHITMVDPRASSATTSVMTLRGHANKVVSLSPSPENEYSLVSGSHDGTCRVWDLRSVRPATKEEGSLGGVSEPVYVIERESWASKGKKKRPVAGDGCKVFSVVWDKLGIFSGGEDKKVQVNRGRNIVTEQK
Briefly: ITC. (In general: Isothermal titration calorimetry measures the heat released or taken up as one component is titrated into another.)

In assay [1], “ChErb1 R486A mutant (from UniProt G0SCK6 1-801) (natural protein)” showed an equilibrium dissociation constant (Kd) of 7 nM.

Turning to “6xHis-ChErb1[R486E], full-length (from UniProt G0SCK6 1-801) (natural protein)”, the fold loss of affinity (KD) against the ChErb1-ChYtm1 interaction in assay [1] was found to be 100 fold.

B1: 6xHis-ChErb1_(432–801) (β-propeller domain of ChErb1) (domain or fragment, Chaetomium thermophilum, UniProt G0SCK6 432-801, looked up)
chain: LPSPDELKPFPTVQQTIFRGHEGRVRSVAIDPTGVALATGGDDGTVRVWELLTGRQVWSVKLNGDEAVNTVRWRPTKDTFILAAAAGEDIFLMIPTHPSVTPALDQASRDILNAGFGHATNGKQQANLPPGKEPPGKWARPGTRLEDEGVLLRITVRSTIKAISWHRRGDHFATVSPSGQRSSVAIHTLSKHLTQIPFRKLNGLAQTASFHPLRPLFFVATQRSIRCYDLQKLELVKIVQPGAKWISSFDVHPGGDNLVVGSYDKRLLWHDLDLSNRPYKTMRFHTEAIRAVRFHKGGLPLFADASDDGSLQIFHGKVPNDQLENPTIVPVKMLKGHKVVNKLGVLDIDWHPREPWCVSAGADGTARLWM
For the molecule B1, the dissociation constant Kd in assay [2] is ~9 nM.
